Test results reported in IntAct's records for PubMed 18432193.

B1: Protein draper (Drosophila melanogaster (Fruit fly)), Q9W0A0 (parent)
chain: MLPVILIACLAQLVLAQADLKDLDGPNICKRRELYNVDVVYTELQSFQERGSTWCVTFPPRCSTYRIKHRVVNKTKTIAKNRIVRDCCDGYIASAGECVPHCSEPCQHGRCISPEKCKCDHGYGGPACDINCPPGWYGRNCSMQCDCLNNAVCEPFSGDCECAKGYTGARCADICPEGFFGANCSEKCRCENGGKCHHVSGECQCAPGFTGPLCDMRCPDGKHGAQCQQDCPCQNDGKCQPETGACMCNPGWTGDVCANKCPVGSYGPGCQESCECYKGAPCHHITGQCECPPGYRGERCFDECQLNTYGFNCSMTCDCANDAMCDRANGTCICNPGWTGAKCAERICEANKYGLDCNRTCECDMEHTDLCHPETGNCQCSIGWSSAQCTRPCTFLRYGPNCELTCNCKNGAKCSPVNGTCLCAPGWRGPTCEESCEPGTFGQDCALRCDCQNGAKCEPETGQCLCTAGWKNIKCDRPCDLNHFGQDCAKVCDCHNNAACNPQNGSCTCAAGWTGERCERKCDTGKFGHDCAQKCQCDFNNSLACDATNGRCVCKQDWGGVHCETNCRSGYYGENCDKVCRCLNNSSCDPDSGNCICSAGWTGADCAEPCPPGFYGMECKERCPEILHGNKSCDHITGEILCRTGYIGLTCEHPCPAGLYGPGCKLKCNCEHGGECNHVTGQCQCLPGWTGSNCNESCPTDTYGQGCAQRCRCVHHKVCRKADGMCICETGWSGTRCDEVCPEGFYGEHCMNTCACPSANFQCHAAHGCVCRSGYTGDNCDELIASQRIADQSENSSRASVALTLVLMTLFACIIFAVFIYYRRRVSNLKTEIAHVHYTHDTNPPSWPPNHNFDNPVYGMQAETRLLPNNMRSKMNNFDQRSTMSTDYGDDCNASGRVGSYSINYNHDLLTKNLNADRTNPIVYNESLKEEHVYDEIKHKEGYKDPDEYDHLDYSRPSTSQKPHYHRMNDAMLNINQDEEKPSNVKNMTVLLNKPLPPTEPEPQHECFDNTNTNLDNVSTASPSSSPKFLK
partner: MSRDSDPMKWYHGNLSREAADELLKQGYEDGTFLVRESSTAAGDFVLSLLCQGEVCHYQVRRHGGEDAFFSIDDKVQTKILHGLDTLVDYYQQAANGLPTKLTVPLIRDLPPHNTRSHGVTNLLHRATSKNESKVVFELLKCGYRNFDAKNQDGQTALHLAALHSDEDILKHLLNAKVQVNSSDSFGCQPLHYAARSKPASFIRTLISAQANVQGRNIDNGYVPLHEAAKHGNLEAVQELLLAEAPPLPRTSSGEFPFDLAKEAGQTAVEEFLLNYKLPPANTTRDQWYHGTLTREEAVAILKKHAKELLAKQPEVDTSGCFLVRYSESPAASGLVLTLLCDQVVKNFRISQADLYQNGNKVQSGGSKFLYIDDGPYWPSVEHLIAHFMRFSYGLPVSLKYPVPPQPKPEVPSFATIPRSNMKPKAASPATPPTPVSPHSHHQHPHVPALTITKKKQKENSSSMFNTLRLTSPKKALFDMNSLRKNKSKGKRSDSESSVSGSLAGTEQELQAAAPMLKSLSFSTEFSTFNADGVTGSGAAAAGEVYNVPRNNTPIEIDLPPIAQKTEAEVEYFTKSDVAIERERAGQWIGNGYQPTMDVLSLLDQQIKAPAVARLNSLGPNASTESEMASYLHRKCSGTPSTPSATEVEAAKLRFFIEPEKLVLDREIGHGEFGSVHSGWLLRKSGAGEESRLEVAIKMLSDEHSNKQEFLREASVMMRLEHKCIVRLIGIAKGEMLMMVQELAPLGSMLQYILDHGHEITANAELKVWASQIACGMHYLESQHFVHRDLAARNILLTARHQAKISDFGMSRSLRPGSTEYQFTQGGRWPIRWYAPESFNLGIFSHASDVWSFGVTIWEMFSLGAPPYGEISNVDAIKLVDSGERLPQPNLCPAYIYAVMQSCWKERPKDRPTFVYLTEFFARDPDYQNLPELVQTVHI

Variants of: B1
Settings: with shark_drome Shark

effect of a mutation on the interaction | Variant
decreasing interaction | Y949F

Variants of: B1
Settings: with shark_drome Shark
Remark: another data set of the same source

effect of a mutation on the interaction | Variant
disrupting interaction | Y949F
decreasing interaction | Y934F
